Laboratory results from the supplement of paper PMC10724198.
± gives the standard deviation of the averaged measurements.

Each sequence was assayed on Saccharomyces cerevisiae (assay: protein stability index of tFT-peptide fusion (C-terminal peptide) (PSI (0-1 scale)); higher = more stable (slower turnover)). Conditions: genetic background: wild type; temperature: 30 C.
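Also: PSI is a weighted mean of sequencing reads over stability bins, variants kept only with over 10 reads, mCherry proximal and sfGFP distal, peptide attached via GGGS linker.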

Sequence	protein stability index
PALPPPPPSPPL	0.676 ± 0.15
PALPPPSLPPPP	0.6718 ± 0.0023
PALTSSGPPPLV	0.741 ± 0.096
PANQVKTILGRL	0.694 ± 0.11
PAPALPPPSSPP	0.69 ± 0.0095
PAPAPPPPAVPL	0.612 ± 0.018
PAPAPSPSFRDH	0.708 ± 0.094
PAPASDYLRGRR	0.691 ± 0.049
PAPPPPPLPPPP	0.615 ± 0.041
PAPPPPPPRPPP	0.669 ± 0.071
PAPPPPPRPPPS	0.655 ± 0.008
PAPPSPPPPLYP	0.721 ± 0.046
PAPPSPSPPPPL	0.836 ± 0.14
PAPPTPPPPLYP	0.715 ± 0.015
PAPPVFVPSLPL	0.801 ± 0.029
PAPRLEPRSPNV	0.676 ± 0.021
PAPSAPLLRTRP	0.6702 ± 0.0019
PAPSLPPPRLAP	0.653 ± 0.026
PAPSPLVLFFGF	0.692 ± 0.03
PAPSRRTVTDYW	0.654 ± 0.015
PARTPSPPAPSH	0.657 ± 0.056
PASASVHPRILC	0.559 ± 0.05
PASLPPSPPLLL	0.696 ± 0.039
PASPPTSPRSVP	0.742 ± 0.022
PASRNWGLNPDT	0.677 ± 0.025
PATRFSPPSSLS	0.745 ± 0.028

Sequence	protein stability index
PAVGPDGTIRPL	0.706 ± 0.037
PAWVEARWLCRG	0.764 ± 0.069
PAYLMDRGYIMT	0.613 ± 0.031
PAYVSTLPPLLL	0.694 ± 0.086
PCFLLPLPHTPP	0.707 ± 0.024
PCIKHNSSLIGP	0.701 ± 0.081
PCPAPLPPPAPP	0.619 ± 0.0098
PCPLAHSLWLMF	0.612 ± 0.056
PCPPARSSLALS	0.636 ± 0.051
PCPSPPALPLAP	0.696 ± 0.056
PCTGSKRRSLKS	0.717 ± 0.055
PCTPLPRPRTSR	0.702 ± 0.065
PCYSFSSSPPRL	0.693 ± 0.016
PDERMVIPAIRD	0.665 ± 0.12
PDHFPSPALPTH	0.702 ± 0.0097
PDPPSPSPFPAP	0.724 ± 0.049
PDRQVTAFPCFW	0.6787 ± 0.0051
PDSASSLTPPPP	0.66 ± 0.085
PDTLCAYLSFGS	0.776 ± 0.064
PDTRLGIIITNM	0.701 ± 0.083
PDVFIWIRPLLP	0.6282 ± 0.0062
PDVNLVRRVMSL	0.596 ± 0.053
PDVPVTCYAASH	0.661 ± 0.067
PEERSGTSAGRL	0.695 ± 0.038
PEGICYCHSPAP	0.694 ± 0.013
PEGPPRPPLHPS	0.696 ± 0.019

Sequence	protein stability index
PEPEPAGASQKR	0.577 ± 0.0076
PERWFPSTPSLP	0.702 ± 0.031
PEYGSGCNCLGS	0.664 ± 0.0073
PFAPSPRPPQPP	0.672 ± 0.02
PFATARLFPLPP	0.804 ± 0.019
PFECRRPFPPPA	0.764 ± 0.067
PFEVPSSVISVP	0.673 ± 0.13
PFIAHSACAALN	0.604 ± 0.011
PFIPQPFPPLCS	0.709 ± 0.075
PFPFLPSPIFPQ	0.749 ± 0.057
PFPPPPSPPLYP	0.7292 ± 0.0012
PFPPSAAPPLPF	0.593 ± 0.068
PFPPSAHPPPPH	0.795 ± 0.085
PFPRSSPPPPPD	0.652 ± 0.017
PFPSPPSPRDAS	0.688 ± 0.042
PFRSPSLPYFRL	0.712 ± 0.018
PFSLLPDASPPL	0.703 ± 0.04
PFSLPPPHLWSI	0.746 ± 0.065
PFVCPHLPAPPP	0.791 ± 0.094
PFVGFSLLWLGF	0.567 ± 0.017
PGAFLRLSPPRA	0.7019 ± 0.0013
PGAGKRLIERVK	0.593 ± 0.062
PGCGVGSPARAE	0.712 ± 0.032
PGCYRVPIHSFS	0.7131 ± 0.0015
PGKRPTERLAPS	0.749 ± 0.026
PGLIPSPRYLLP	0.656 ± 0.024

Sequence	protein stability index
PGLSTGAVKLLY	0.692 ± 0.023
PGPGNGHTKRTR	0.654 ± 0.034
PGRLVVGAGRED	0.707 ± 0.036
PGRRATKVPSPR	0.719 ± 0.027
PGSAVSFLLTFR	0.646 ± 0.012
PGSFDLSDLAFA	0.707 ± 0.073
PGSRRAQPVTSG	0.741 ± 0.022
PGTGPPSWGRTS	0.605 ± 0.047
PGTNENPLSPGK	0.7302 ± 0.0041
PHAGPLHTPLRL	0.699 ± 0.019
PHILPTSDSPFP	0.78463 ± 0.00073
PHLHLPPPPISA	0.5857 ± 0.00069
PHLPPPPDPPRP	0.676 ± 0.009
PHLWSLPHATTA	0.684 ± 0.051
PHPHLPAPTPRT	0.702 ± 0.0079
PHPPLPPPPPPP	0.702 ± 0.018
PHPPPSSRLLSR	0.751 ± 0.058
PHPQPRPTAPSP	0.7177 ± 0.002
PHPVTVFLSHLS	0.499 ± 0.041
PHRPCPPPAPPP	0.658 ± 0.0096
PHRPIGRVKHAS	0.71 ± 0.038
PHSPPRPLPPPL	0.703 ± 0.047
PHTPARSLPPSR	0.6473 ± 0.0047
PIAPDPAPVGLD	0.721 ± 0.014
PILPPVPPRASS	0.7029 ± 0.0053
PIPSVFSPFLFA	0.641 ± 0.015

Sequence	protein stability index
PIQYMLRSSMPR	0.688 ± 0.065
PISPPSFRSPTP	0.691 ± 0.029
PISPSLCSSILS	0.5893 ± 0.0056
PISRRVIFCLQT	0.62 ± 0.033
PITFTSRYLLLE	0.697 ± 0.042
PIVRTQLGNSVQ	0.696 ± 0.067
PIYRNKGNRGGI	0.739 ± 0.034
PKKKKKKTKAEK	0.712 ± 0.035
PKSGPDQPQPPG	0.591 ± 0.086
PLAFFSTRPTPF	0.697 ± 0.03
PLALLPPPPHPP	0.597 ± 0.07
PLAPPPLSPSPI	0.7873 ± 0.0059
PLAPPPSILPVP	0.703 ± 0.055
PLAPPRHRRRPG	0.7132 ± 0.0047
PLARLRFRSVVG	0.6678 ± 0.0038
PLASRPHPLPPP	0.671 ± 0.02
PLDAPDTRVWEI	0.738 ± 0.061
PLFLCVISPFRL	0.5805 ± 0.0018
PLFLYCRSAPRL	0.817 ± 0.025
PLFPGLARLSSS	0.703 ± 0.031
PLFPSPSPPRHP	0.7435 ± 0.0018
PLFTPPPVLHHP	0.752 ± 0.031
PLGFFHKQSATV	0.666 ± 0.023
PLGLPLPCPFLL	0.683 ± 0.063
PLHPLPPAPFPP	0.689 ± 0.01
PLIDRSTCSLSG	0.6366 ± 0.0032

Sequence	protein stability index
PLIVSPCYSLVP	0.659 ± 0.014
PLLGPSCLRPPS	0.791 ± 0.17
PLLIPPPPTYPP	0.63 ± 0.038
PLLLAPPPPSPP	0.739 ± 0.036
PLLPPALPASPF	0.6972 ± 0.0019
PLLPPPLSPFPH	0.659 ± 0.013
PLLPPPPPLSPP	0.6772 ± 0.0035
PLLPRSILSATG	0.641 ± 0.043
PLLPRTPPLSAT	0.671 ± 0.0079
PLLPSLPLPPSP	0.716 ± 0.011
PLLRGFPAHLAS	0.699 ± 0.078
PLNHIVHPHRAP	0.687 ± 0.0052
PLPAPAPSPPSP	0.695 ± 0.018
PLPHSPPPPPPT	0.736 ± 0.024
PLPLLPLPPLAP	0.67 ± 0.098
PLPLPPPFPPLS	0.59 ± 0.043
PLPLPSPAPPYS	0.68 ± 0.013
PLPLPTPPAFLS	0.707 ± 0.08
PLPPASPCLCSY	0.643 ± 0.049
PLPPHRLPNPRL	0.784 ± 0.011
PLPPLPPPLSPP	0.732 ± 0.067
PLPPLPPTRPLP	0.688 ± 0.026
PLPPPFPGSALL	0.727 ± 0.01
PLPPPLDLPPRS	0.735 ± 0.12
PLPPPNPPLPVF	0.615 ± 0.036
PLPPPPAPPLSP	0.67 ± 0.018

Sequence	protein stability index
PLPPPPDSPPLP	0.694 ± 0.013
PLPPPSLPPSPS	0.699 ± 0.036
PLPPSPLESVDT	0.637 ± 0.027
PLPPSPTRPPAN	0.662 ± 0.0099
PLPPVPRTPTPR	0.662 ± 0.075
PLPPVVPTFSTP	0.684 ± 0.0077
PLPRLSPFSHPP	0.701 ± 0.052
PLPSPSSSSSPI	0.674 ± 0.043
PLRDIRSVRYSS	0.685 ± 0.053
PLRMFRGGISWR	0.734 ± 0.037
PLRPPAPRHSPP	0.723 ± 0.013
PLRRPFSSPFLL	0.59 ± 0.067
PLRSDSRAESLL	0.653 ± 0.051
PLRSTYPSLLLP	0.691 ± 0.011
PLRTCPCAPLPS	0.689 ± 0.012
PLSDDPRRPLST	0.688 ± 0.069
PLSLLVHPLPPS	0.679 ± 0.011
PLSPAPPRPPPP	0.621 ± 0.023
PLSPRPLPPPPP	0.713 ± 0.0018
PLSPRSASTFSP	0.67 ± 0.0013
PLSPSCTLPPRP	0.674 ± 0.034
PLSTPLSPALLS	0.602 ± 0.023
PLSYRPPSRFYF	0.587 ± 0.061
PLTRSRFLLSPL	0.653 ± 0.034
PLTVARTHRGHA	0.689 ± 0.014
PLVVETNRFGDV	0.6988 ± 0.004

Sequence	protein stability index
PMHVILGLSGQP	0.732 ± 0.059
PMLRSLVVLSSR	0.669 ± 0.022
PMPRHVPRPTTP	0.674 ± 0.06
PNPLCQPPTGRP	0.705 ± 0.14
PNPPYFPSPGRS	0.74 ± 0.044
PNRKCSGTFAAS	0.65573 ± 0.00064
PNTNIRTHCQWI	0.709 ± 0.02
PNVAIMSGGQTV	0.6912 ± 0.0059
PPACAHPLFWTL	0.6499 ± 0.00087
PPACPSSRIPVF	0.615 ± 0.041
PPALRPPPPPPP	0.6932 ± 0.0019
PPAPHPHLPSSY	0.685 ± 0.072
PPAPLPLAPSSL	0.722 ± 0.042
PPAPPLPSSPSP	0.773 ± 0.024
PPAPPSPPHPPL	0.7133 ± 0.0036
PPAPRLPPPLPP	0.629 ± 0.021
PPAPSPPPLPAA	0.665 ± 0.031
PPASFTPPFLPP	0.69 ± 0.013
PPASPRSPIVSR	0.723 ± 0.059
PPATQSPPLPPC	0.766 ± 0.037
